Numbering of substitutions follows the chain as printed.
T1: human PAC1 receptor (human, UniProt P41586 21-468)
T1 sequence: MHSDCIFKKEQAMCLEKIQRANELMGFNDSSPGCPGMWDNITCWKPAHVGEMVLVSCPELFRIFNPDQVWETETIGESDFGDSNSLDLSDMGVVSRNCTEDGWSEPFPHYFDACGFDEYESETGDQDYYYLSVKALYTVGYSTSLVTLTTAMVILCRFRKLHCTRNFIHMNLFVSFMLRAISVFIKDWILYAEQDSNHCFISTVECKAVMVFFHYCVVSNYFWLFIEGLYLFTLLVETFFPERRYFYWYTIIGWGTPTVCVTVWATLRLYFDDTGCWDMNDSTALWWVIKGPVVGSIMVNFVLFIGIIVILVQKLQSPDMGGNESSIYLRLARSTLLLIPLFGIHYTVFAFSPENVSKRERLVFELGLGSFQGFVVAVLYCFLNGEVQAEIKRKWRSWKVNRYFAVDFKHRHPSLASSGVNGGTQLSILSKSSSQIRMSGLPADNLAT

B1: iPS:327285 (bispecific antibody, human IgG1, kappa, lambda, N297G)
light 1: not shown
heavy 1: not shown
light 2: QSVLTQPPSVSAAPGQKVTISCSGSSSNIGNNYVSWYQQLPGTAPKLLIYDNNKRPSGIPDRFSGSKSGTSTTLGITGLQTGDEADYYCGTWDSRLSAVVFGKGTKLTVLGQPKANPTVTLFPPSSEELQANKATLVCLISDFYPGAVTVAWKADGSPVKAGVETTKPSKQSNNKYAAKSYLSLTPEQWKSHRSYSCQVTHEGSTVEKTVAPTECS
heavy 2: QVQLVESGGGVVQPGRSLRLSCAASGFTFSSFGMHWVRQAPGKELEWVAVISFDGSIKYSVDSVKGRFTISRDNSKNTLFLQMNSLRAEDTAVYYCARDRLNYYDSSGYYHYKYYGMAVWGQGTTVTVSSASTKGPSVFPLAPSSKSTSGGTAALGCLVKDYFPEPVTVSWNSGALTSGVHTFPAVLQSSGLYSLESVVTVPSSSLGTQTYICNVNHKPSNTKVDKKVEPKSCDKTHTCPPCPAPELLGGPSVFLFPPKPKDTLMISRTPEVTCVVVDVSHEDPEVKFNWYVDGVEVHNAKTKPCEEQYGSTYRCVSVLTVLHQDWLNGKEYKCKVSNKALPAPIEKTISKAKGQPREPQVYTLPPSRKEMTKNQVSLTCLVKGFYPSDIAVEWESNGQPENNYKTTPPVLKSDGSFFLYSKLTVDKSRWQQGNVFSCSVMHEALHNHYTQKSLSLSPGK
B2: iPS:327290 (bispecific antibody, human IgG1, kappa, lambda, N297G)
light 1: DIQLTQSPSFLSASVGDRVTITCRASQSIGRSLHWYQQKPGKAPKLLIKYASQSLSGVPSRFSGSGSGTEFTLTISSLQPEDFATYYCHQSSRLPFTFGPGTKVDIKRTVAAPSVFIFPPSDEQLKSGTASVVCLLNNFYPREAKVQWKVDNALQSGNSQESVTEQDSKDSTYSLESTLTLSKADYEKHKVYACEVTHQGLSSPVTKSFNRGEC
heavy 1: not shown
light 2: B1 light 2 with K103G
heavy 2: B1 heavy 2 with E44G, E370K
B3: iPS:327287 (bispecific antibody, human IgG1, kappa, lambda, N297G)
light 1: EIVLTQSPATLSLSPGERATLSCRASQSVGRSLHWYQQKPGQAPRLLIKYASQSLSGIPARFSGSGSGTDFTLTISSLEPEDFAVYYCHQSSRLPFTFGEGTKVDIKRTVAAPSVFIFPPSDEQLKSGTASVVCLLNNFYPREAKVQWKVDNALQSGNSQESVTEQDSKDSTYSLESTLTLSKADYEKHKVYACEVTHQGLSSPVTKSFNRGEC
heavy 1: not shown
light 2: B1 light 2
heavy 2: B1 heavy 2
B4: iPS:327286 (bispecific antibody, human IgG1, kappa, lambda, N297G)
light 1: B2 light 1 with P100E
heavy 1: not shown
light 2: B1 light 2
heavy 2: B1 heavy 2
B5: iPS:327288 (bispecific antibody, human IgG1, kappa, lambda, N297G)
light 1: not shown
heavy 1: not shown
light 2: B1 light 2 with K103G
heavy 2: B1 heavy 2 with E44G, E370K
B6: iPS:327289 (bispecific antibody, human IgG1, kappa, lambda, N297G)
light 1: not shown
heavy 1: not shown
light 2: B1 light 2 with K103G
heavy 2: B1 heavy 2 with E44G, E370K
B7: iPS:327280 (bispecific antibody, human IgG1, kappa, lambda, N297G)
light 1: not shown
heavy 1: not shown
light 2: B1 light 2 with K103G
heavy 2: B1 heavy 2 with E44G
B8: iPS:327281 (bispecific antibody, human IgG1, kappa, lambda, N297G)
light 1: not shown
heavy 1: not shown
light 2: B1 light 2 with K103G
heavy 2: B1 heavy 2 with E44G
B9: iPS:326631 (bispecific antibody, human IgG2, kappa, lambda)
light 1: not shown
heavy 1: QVQLQQSGPGLVKPSQTLSLTCAISGDSVSSNSATWNWIRQSPSRGLEWLGRTYYRSKWSNHYAVSVKSRITINPDTSKSQFSLQLNSVTPEDTAVYYCARGTWKQLWFLDHWGQGTLVTVSSASTKGPSVFPLAPCSRSTSESTAALGCLVKDYFPEPVTVSWNSGALTSGVHTFPAVLQSSGLYSLKSVVTVPSSNFGTQTYTCNVDHKPSNTKVDKTVERKCCVECPPCPAPPVAGPSVFLFPPKPKDTLMISRTPEVTCVVVDVSHEDPEVQFNWYVDGVEVHNAKTKPREEQFNSTFRVVSVLTVVHQDWLNGKEYKCKVSNKGLPAPIEKTISKTKGQPREPQVYTLPPSREEMTKNQVSLTCLVDGFYPSDIAVEWESNGQPENNYDTTPPMLDSDGSFFLYSDLTVDKSRWQQGNVFSCSVMHEALHNHYTQKSLSLSPGK
light 2: not shown
heavy 2: not shown
B10: iPS:327679 (bispecific antibody, human IgG1, kappa, N297G)
light 1: B2 light 1
heavy 1: not shown
light 2: EIVLTQSPGTLSLSPGERATLSCRASQSVSSGYLTWYQQKPGQAPRLLIYGASSRATGIPDRFSGSGSGTDFTLTISRLEPEDFAVYYCQQYGNSLSRFGQGTKLEIKRTVAAPSVFIFPPSDEQLKSGTASVVCLLNNFYPREAKVQWKVDNALQSGNSQESVTEQDSKDSTYSLKSTLTLSKADYEKHKVYACEVTHQGLSSPVTKSFNRGEC
heavy 2: not shown
B11: iPS:327680 (bispecific antibody, human IgG1, kappa, N297G)
light 1: B3 light 1 with E100P
heavy 1: not shown
light 2: B10 light 2
heavy 2: not shown

These binders were tested against human CGRP receptor (human, UniProt Q16602 23-461; O60894 27-148) (assay: cell-based or functional assay).
Chain of human CGRP receptor (Q16602 23-461 limits assumed, chain 1 of 2): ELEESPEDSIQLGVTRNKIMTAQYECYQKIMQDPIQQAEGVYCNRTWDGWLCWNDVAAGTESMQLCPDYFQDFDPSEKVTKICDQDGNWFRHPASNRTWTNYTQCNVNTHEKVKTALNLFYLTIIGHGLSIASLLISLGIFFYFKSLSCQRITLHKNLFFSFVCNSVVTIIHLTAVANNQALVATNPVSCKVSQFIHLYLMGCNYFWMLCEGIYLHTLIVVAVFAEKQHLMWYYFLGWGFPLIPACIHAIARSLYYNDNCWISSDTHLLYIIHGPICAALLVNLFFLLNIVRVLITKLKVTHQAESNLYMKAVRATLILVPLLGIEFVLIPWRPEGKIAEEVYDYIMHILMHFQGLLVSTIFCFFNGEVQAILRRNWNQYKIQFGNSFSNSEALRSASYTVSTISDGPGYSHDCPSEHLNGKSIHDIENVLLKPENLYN
Chain of human CGRP receptor (O60894 27-148 limits assumed, chain 2 of 2): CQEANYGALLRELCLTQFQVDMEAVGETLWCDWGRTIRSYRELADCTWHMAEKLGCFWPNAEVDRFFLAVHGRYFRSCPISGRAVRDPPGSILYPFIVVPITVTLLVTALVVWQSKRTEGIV

Row | % inhibition of human CGRPR [%] | Binder
1 | 84 | B1
2 | 70 | B2
3 | 86 | B3
4 | 85 | B4
5 | 67 | B5
6 | 72 | B6
7 | 80 | B7
8 | 82 | B8
9 | 89 | B9
10 | 86 | B10
11 | 88 | B11

Each binder was assayed against T1, human PAC1 receptor (assay: cell-based or functional assay).

Row | % inhibition of human PAC1 [%] | Binder
12 | 9 | B1
13 | 60 | B2
14 | 71 | B3
15 | 23 | B4
16 | 88 | B5
17 | 75 | B6
18 | 83 | B7
19 | 50 | B8
20 | 79 | B9
21 | 23 | B10
22 | 92 | B11

— patent US20170306033A1 (Amgen, published 2017)
